4 molecules from PMC6707876 (Nature microbiology, 2019) can be followed below.

A word on the Kd: it is the equilibrium constant for the complex coming apart. Lower therefore signals a tighter complex. A word on the IC50: it is the concentration that inhibits the measured activity by half. Low readings indicate inhibition by little substance, high ones a need for much substance.

Assay [1] has as its target T1, biotinylated BirA-tagged Sal-1 DBP-II (Plasmodium vivax, UniProt P22290, biotin (added with BirA ligase on the BirA tag)). In words: BLI. (In BLI a coated tip is dipped into the sample, and binding shifts an interference pattern.)
Assay [2] has as its target T1, biotinylated BirA-tagged Sal-1 DBP-II. In words: flow cytometry on cells.

T1 sequence (P22290 211-525): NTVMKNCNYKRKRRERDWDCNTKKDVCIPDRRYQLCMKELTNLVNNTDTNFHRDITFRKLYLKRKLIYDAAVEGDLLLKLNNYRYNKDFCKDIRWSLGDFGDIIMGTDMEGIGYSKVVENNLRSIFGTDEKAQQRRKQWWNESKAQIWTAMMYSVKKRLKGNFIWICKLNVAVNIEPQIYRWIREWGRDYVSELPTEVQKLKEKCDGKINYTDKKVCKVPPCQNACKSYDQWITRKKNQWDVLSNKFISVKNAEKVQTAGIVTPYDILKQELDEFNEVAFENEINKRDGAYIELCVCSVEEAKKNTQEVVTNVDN

B1: 053054 single-chain variable fragment (scFv, V domains shown)
VH: QVQLQESGPGLVKPSQTLSLTCNVSGDSINSGDYYWIWIRQPPGKGLEWIGNIYYSGTAYYNPSLKTRLIISIDTSTNQFSLKVTSVTAADTAIYYCARASTTVVSPWLDPWGQGTLVTVSS
VL: SYELTQPSSVAVAPGQTARIPCGGDNIESKGVHWYQQKPGQAPVLVVYDDHDRPSGIPERFSGSNSGNTATLTVSRVEAGDEADYYCQVWDTSSEHPVFGGGTKLTVL
With B1, the affinity in assay [1], expressed as Kd, was 7.44 ± 0.36 nM.

B2: human monoclonal antibody 053054 (full-length IgG1) (antibody, V domains shown)
VH: B1 VH
VL: B1 VL
Consider B2, for which, in assay [2], inhibition was half-maximal at 4.88 ± 1.06 nM (IC50).

B3: 092096 single-chain variable fragment (scFv, V domains shown)
VH: QVQLVQSGAEVKKPGASVKVSCKVSGYTLTELSMHWVRQAPGKGLEWMGGFDREDGESIYAQKFQGRVTLTEDTSTDSVYMELSNLRSDDTAVYFCATDFGGSYFYAFDIWGQGTMVTVSS
VL: not shown
In the case of B3, the Kd in assay [1] came out at 7.63 ± 0.29 nM.

B4: human monoclonal antibody 092096 (full-length IgG1) (antibody, V domains shown)
VH: B3 VH
VL: not shown
In assay [2], B4 gave an IC50 of 1.63 ± 1.07 nM.
